B1: Lysine-specific demethylase 5C, residues 319 to 373; numbered along this chain, P41229 (parent)
chain: AQFIESYVCRMCSRGDEDDKLLLCDGCDDNYHIFCLLPPLPEIPKGVWRCPKCVM

± gives the uncertainty stated by the source.

The data set covers variants of B1. Briefly: abundance fitness (aPCA) (normalised: wild type 0, dead -1); higher = more abundant; growth selection in yeast, the domain comes from the species named. The conditions noted are these: Homo sapiens.
As for L40F, the abundance fitness was -0.678 ± 0.46.

On to L36Q, for which the abundance fitness was -0.555 ± 0.25.

Turning to L36C, the abundance fitness was determined as 0.232 ± 0.13.

L36E: the abundance fitness is -0.551 ± 0.21.

L36P: the abundance fitness is -0.613 ± 0.2.

For the variant L36N, the abundance fitness is -0.576 ± 0.25.

With L36T, the abundance fitness was -0.16 ± 0.15.

For L36I, the abundance fitness was -0.134 ± 0.18.

Regarding L36D, the abundance fitness was -0.898 ± 0.32.

Take L36H: the abundance fitness stood at 0.006 ± 0.26.

On to L36S, for which the abundance fitness is -0.157 ± 0.091.

As for L36G, the abundance fitness is -0.688 ± 0.17.

As to L36V, the abundance fitness is -0.118 ± 0.1.

For the variant L36R, the abundance fitness was -0.732 ± 0.14.

On to L36M, for which the abundance fitness was -0.275 ± 0.17.

For the variant L36W, the abundance fitness is -0.237 ± 0.2.

On to L36F, for which the abundance fitness was -0.26 ± 0.17.

As for E42F, the abundance fitness was -0.231 ± 0.17.

Regarding E42L, the abundance fitness was -0.431 ± 0.11.

E42I: the abundance fitness is 0.009 ± 0.27.

On to E42A, for which the abundance fitness was -0.05 ± 0.15.

On to E42W, for which the abundance fitness was -0.333 ± 0.14.

As to E42Q, the abundance fitness turned out to be 0.033 ± 0.27.

Consider E42V, for which the abundance fitness was -0.157 ± 0.14.

Turning to E42G, the abundance fitness was -0.157 ± 0.15.

For E42N, the abundance fitness is -0.034 ± 0.17.

Turning to E42K, the abundance fitness was -0.506 ± 0.17.

Regarding E42H, the abundance fitness was -0.44 ± 0.19.

Turning to E42C, the abundance fitness was -0.245 ± 0.15.

For E42M, the abundance fitness is -0.37 ± 0.19.

Regarding E42D, the abundance fitness was 0.043 ± 0.24.

As for E42T, the abundance fitness was 0.068 ± 0.11.

In the case of E42R, the abundance fitness is -0.072 ± 0.091.

Regarding E42P, the abundance fitness is -0.611 ± 0.17.

In the case of E42Y, the abundance fitness was -0.125 ± 0.16.

As for E42S, the abundance fitness is -0.273 ± 0.094.

Consider K45F, for which the abundance fitness was -0.491 ± 0.21.

As to K45I, the abundance fitness was -0.25 ± 0.23.

In the case of K45A, the abundance fitness was -0.176 ± 0.15.

Turning to K45V, the abundance fitness is -0.179 ± 0.15.

Turning to K45E, the abundance fitness was -0.138 ± 0.16.

Turning to K45M, the abundance fitness is -0.469 ± 0.28.

With K45W, the abundance fitness was -0.446 ± 0.2.

On to K45D, for which the abundance fitness amounted to 0.237 ± 0.2.

K45Q: the abundance fitness is -0.277 ± 0.16.

As for K45R, the abundance fitness is -0.067 ± 0.12.

K45Y: the abundance fitness was -0.553 ± 0.27.

As for K45N, the abundance fitness is -0.022 ± 0.15.

As for K45P, the abundance fitness is -0.032 ± 0.14.

K45H: the abundance fitness is -0.048 ± 0.17.

Consider K45C, for which the abundance fitness is -0.156 ± 0.14.

Turning to K45S, the abundance fitness is -0.266 ± 0.12.

As to K45L, the abundance fitness is -0.175 ± 0.12.

On to K45T, for which the abundance fitness is -0.003 ± 0.17.

Regarding I43P, the abundance fitness was -0.307 ± 0.17.

Consider I43S, for which the abundance fitness was -0.082 ± 0.11.

Regarding I43E, the abundance fitness is -0.057 ± 0.32.

In the case of I43M, the abundance fitness turned out to be 0.156 ± 0.14.

Turning to I43G, the abundance fitness was -0.302 ± 0.12.

In the case of I43F, the abundance fitness is -0.21 ± 0.23.

In the case of I43R, the abundance fitness was -0.022 ± 0.092.

For the variant I43N, the abundance fitness was -0.222 ± 0.25.

Consider I43K, for which the abundance fitness was -0.101 ± 0.14.

With I43V, the abundance fitness is -0.137 ± 0.15.

In the case of I43L, the abundance fitness worked out at 0.101 ± 0.1.

In the case of I43W, the abundance fitness was -0.202 ± 0.14.

On to I43C, for which the abundance fitness is -0.314 ± 0.15.

For I43D, the abundance fitness is -0.462 ± 0.36.

Consider I43H, for which the abundance fitness is -0.139 ± 0.17.

For I43A, the abundance fitness was -0.281 ± 0.18.

Turning to I43Y, the abundance fitness is -0.333 ± 0.16.

In the case of I43Q, the abundance fitness was 0.076 ± 0.14.

Consider I43T, for which the abundance fitness is -0.467 ± 0.17.

G46I: the abundance fitness was -0.538 ± 0.21.

Consider G46R, for which the abundance fitness is -0.083 ± 0.15.

G46H: the abundance fitness stood at 0.132 ± 0.23.

In the case of G46P, the abundance fitness was -0.42 ± 0.31.

As for G46A, the abundance fitness is -0.059 ± 0.2.

As for G46Q, the abundance fitness was -0.093 ± 0.29.

Take G46W: the abundance fitness is -0.464 ± 0.24.

For the variant G46V, the abundance fitness is -0.105 ± 0.14.

On to G46L, for which the abundance fitness was -0.191 ± 0.11.

As for G46C, the abundance fitness was -0.578 ± 0.21.

Regarding G46Y, the abundance fitness was -0.366 ± 0.18.

Consider G46N, for which the abundance fitness is -0.405 ± 0.2.

For G46K, the abundance fitness was -0.383 ± 0.21.

Regarding G46M, the abundance fitness was -0.235 ± 0.18.

For G46E, the abundance fitness came out at 0.364 ± 0.26.

Take G46S: the abundance fitness was -0.204 ± 0.13.

On to G46D, for which the abundance fitness is 0.043 ± 0.21.

As for P41C, the abundance fitness was -0.185 ± 0.13.

Turning to P41F, the abundance fitness is -0.261 ± 0.15.

For the variant P41E, the abundance fitness was -0.278 ± 0.19.

Take P41M: the abundance fitness was -0.55 ± 0.24.

Regarding P41I, the abundance fitness was -0.134 ± 0.47.

As to P41H, the abundance fitness was -0.286 ± 0.23.

Take P41L: the abundance fitness was 0.135 ± 0.1.

In the case of P41V, the abundance fitness was -0.051 ± 0.13.

P41Y: the abundance fitness was -0.244 ± 0.22.

Regarding P41N, the abundance fitness is -0.157 ± 0.23.

For the variant P41S, the abundance fitness turned out to be 0.047 ± 0.094.

For the variant P41G, the abundance fitness was -0.078 ± 0.097.

Take P41R: the abundance fitness was 0.126 ± 0.083.

On to P41Q, for which the abundance fitness was -0.051 ± 0.21.

On to P41A, for which the abundance fitness is -0.134 ± 0.13.

For the variant P41T, the abundance fitness was -0.1 ± 0.2.

With P41W, the abundance fitness is -0.36 ± 0.13.

For P41K, the abundance fitness was -0.092 ± 0.23.

With C35Y, the abundance fitness is -0.786 ± 0.39.

On to C35V, for which the abundance fitness was -1.17 ± 0.22.

For the variant C35W, the abundance fitness was -0.804 ± 0.27.

In the case of P39R, the abundance fitness was -0.164 ± 0.12.

As to P39F, the abundance fitness was -0.667 ± 0.29.

Consider P39G, for which the abundance fitness is -0.217 ± 0.12.

In the case of P39V, the abundance fitness is -0.129 ± 0.11.

Regarding P39I, the abundance fitness is -0.076 ± 0.19.

Regarding P39N, the abundance fitness is -0.045 ± 0.17.

As for P39D, the abundance fitness is -0.233 ± 0.18.

P39Y: the abundance fitness is -0.59 ± 0.21.

Take P39C: the abundance fitness was -0.264 ± 0.15.

As to P39Q, the abundance fitness is -0.276 ± 0.16.

P39L: the abundance fitness is -0.473 ± 0.14.

P39S: the abundance fitness is 0.078 ± 0.1.

With P39K, the abundance fitness came out at 0.148 ± 0.17.

Take P39A: the abundance fitness is -0.018 ± 0.11.

Take P39H: the abundance fitness was -0.787 ± 0.3.

In the case of P39E, the abundance fitness was -0.025 ± 0.16.

Consider P39M, for which the abundance fitness was -0.292 ± 0.18.

As for P39W, the abundance fitness was -0.752 ± 0.27.

For P39T, the abundance fitness is -0.599 ± 0.17.

Regarding P38V, the abundance fitness was -0.1 ± 0.1.

With P38W, the abundance fitness is -0.491 ± 0.16.

Consider P38A, for which the abundance fitness is -0.042 ± 0.12.

Take P38G: the abundance fitness was -0.454 ± 0.13.

Consider P38T, for which the abundance fitness was -0.285 ± 0.2.

On to P38I, for which the abundance fitness was -0.62 ± 0.31.

Turning to P38N, the abundance fitness is 0.041 ± 0.2.

Take P38E: the abundance fitness was -0.191 ± 0.19.

Regarding P38L, the abundance fitness is -0.237 ± 0.086.

P38Q: the abundance fitness was 0.178 ± 0.18.

In the case of P38R, the abundance fitness is -0.116 ± 0.11.

On to P38Y, for which the abundance fitness is -0.416 ± 0.18.

P38D: the abundance fitness was -0.35 ± 0.2.

For the variant P38F, the abundance fitness is -0.564 ± 0.16.

As to P38H, the abundance fitness is -0.12 ± 0.17.

With P38C, the abundance fitness is -0.166 ± 0.13.

As to P38K, the abundance fitness was -0.283 ± 0.26.

In the case of P38M, the abundance fitness was -0.388 ± 0.15.

Take L37A: the abundance fitness was -0.02 ± 0.13.

Turning to L37N, the abundance fitness came out at 0.172 ± 0.19.

L37E: the abundance fitness is -0.073 ± 0.14.

With L37T, the abundance fitness is -0.03 ± 0.18.

As for L37M, the abundance fitness was found to be 0.054 ± 0.15.

Regarding L37R, the abundance fitness was 0.092 ± 0.088.

Turning to L37Q, the abundance fitness was -0.108 ± 0.16.

Regarding L37S, the abundance fitness is -0.012 ± 0.1.

Turning to L37D, the abundance fitness stood at 0.122 ± 0.16.

Regarding L37W, the abundance fitness worked out at 0.182 ± 0.12.

For the variant L37Y, the abundance fitness is -0.328 ± 0.15.

For L37I, the abundance fitness is -0.043 ± 0.22.

For the variant L37K, the abundance fitness came to 0.277 ± 0.15.

As to L37H, the abundance fitness is -0.023 ± 0.22.

For the variant L37C, the abundance fitness was -0.137 ± 0.14.

Regarding L37P, the abundance fitness is -0.076 ± 0.16.

Regarding L37G, the abundance fitness was -0.134 ± 0.14.

In the case of L37V, the abundance fitness is -0.083 ± 0.13.

With L37F, the abundance fitness is -0.193 ± 0.17.

These data come from the Human Domainome abundance scans (Beltran et al. 2025).
